Experimental data: US20190160028A1

Target: Nluc-NS2B (49-66) (named as Nluc-E66stop) (firefly; Dengue virus serotype 2 (DENV2)) [luciferase: P08659]
Sequence (P08659 whole entry): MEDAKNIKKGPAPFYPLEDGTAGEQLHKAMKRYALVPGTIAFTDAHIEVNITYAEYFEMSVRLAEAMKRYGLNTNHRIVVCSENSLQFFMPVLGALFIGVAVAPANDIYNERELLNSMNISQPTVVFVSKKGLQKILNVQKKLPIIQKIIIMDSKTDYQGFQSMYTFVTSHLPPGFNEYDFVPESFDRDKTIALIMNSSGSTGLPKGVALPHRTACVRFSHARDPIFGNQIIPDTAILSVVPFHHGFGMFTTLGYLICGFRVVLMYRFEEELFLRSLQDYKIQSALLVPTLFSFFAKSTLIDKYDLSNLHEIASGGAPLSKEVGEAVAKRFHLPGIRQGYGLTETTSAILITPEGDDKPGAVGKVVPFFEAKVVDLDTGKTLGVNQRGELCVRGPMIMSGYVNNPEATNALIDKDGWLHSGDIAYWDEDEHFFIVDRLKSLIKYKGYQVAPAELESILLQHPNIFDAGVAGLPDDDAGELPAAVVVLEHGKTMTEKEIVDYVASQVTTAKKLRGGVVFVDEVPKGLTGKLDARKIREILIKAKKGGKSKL

## His-tagged maltose-binding protein (MBP) fused to DENV2 NS3 protein (His-MBP-NS3) (from UniProt P14337 1476-1654) (enzyme)
  affinity: 2.5 µM
